From patent publication US12472227B2, “Pharmaceutical compositions and use thereof for relieving resistance due to cancer chemotherapy and enhancing effect of cancer chemotherapy” (Rise Biopharmaceuticals Inc., priority 2015, dated 2025) come the findings set out here.

Entries after “also recorded” stand apart in the source; their conditions may differ. Where two headings read alike, the source gives them in different places.

One data set deals with MIAPaCa2GR cells. Nature of the data set: MTT cytotoxicity of Gemcitabine, Gemcitabine-resistant MIAPaCa2GR. It counts as cell-based. As to conditions: Homo sapiens. The protocol:
(§1) Human pancreatic cancer (PDAC) cell lines, BxPC3 and MIAPaCa2 were used in the present invention. Gemcitabine resistant BxPC3 cell line (BxPC3GR) was generated as a chemoresistant cell line against gemcitabine by culturing BxPC3 cells in media containing increasing concentrations of gemcitabine and then maintained them at 0.5 μM gemcitabine. Gemcitabine resistant MIAPaCa2 cell line (MIAPaCa2GR) was generated by culturing MIAPaCa2 cells in media containing increasing concentrations of gemcitabine and then maintained them at 0.12 μM gemcitabine. […] MIAPaCa2 and MIAPaCa2GR are maintained in DMEM with 10% FBS, 1% penicillin-streptomycin, and 1% L-Glutamine.
To validate the establishment of Gemcitabine-resistant pancreatic ductal adenocarcinoma (PDAC) cell lines, MTT of Gemcitabine gradient was implemented with parental cells and Gemcitabine-resistant (GR) cells. […]

The subject of a further data set is MIAPaCa2 cells. The data set can be described thus: MTT cytotoxicity of Gemcitabine, parental MIAPaCa2. As to conditions: Homo sapiens, MIA PaCa-2. Type of data set: cell-based. As to the method:
as §1
(§2) To validate the establishment of Gemcitabine-resistant pancreatic ductal adenocarcinoma (PDAC) cell lines, MTT of Gemcitabine gradient was implemented with parental cells and Gemcitabine-resistant (GR) cells.
(§3) BxPC-3 and BxPC-3GR treated with gemcitabine from 0 nM to 100 nM, and measured by MTT (FIG. 3a). Similarly, MIAPaCa2 and MIAPaCa2GR also treated with gemcitabine from 0 nM to 100 nM, and measured by MTT (FIG. 3b).

A further data set has as its system BxPC-3 cells. Nature of the data set: MTT cytotoxicity of Gemcitabine, parental BxPC-3. It counts as cell-based. As to conditions: Homo sapiens, BxPC-3 parental cells. As to the method: as §1, §2, §3
The test system of data set [1] is BxPC-3GR. Nature of the data set: Cell proliferation assay (CCK-8), BxPC-3GR. It counts as cell-based, Human. Conditions: Gemcitabine 100 nM, ONCO P-8 400 ng/mL (47 nM), IL-8 200 ng/mL, 24 hours. As to the method:
The Gemcitabine-resistant cancer cells treated by Gemcitabine (100 nM) with ONCO P-8 (400 ng/mL, 47 nM), or treated by Gemcitabine with ONCO P-8 and IL-8 (200 ng/mL, 23.8 nM) for 24 hours.

The test system of a further data set is BxPC-3GR cells. The data set can be described thus: MTT cytotoxicity of Gemcitabine, Gemcitabine-resistant BxPC-3GR. It counts as cell-based. Conditions: Homo sapiens. The protocol: as §1, §2, §3
The next data set concerns BxPC-3 cell line. The data set can be described thus: Transwell matrigel invasion assay, BxPC-3. It counts as cell-based, Human. Conditions: 24 hrs; for invasive rate: ONCO P-8 400 ng/ml or IL-8 200 ng/ml alone. As to the method: (§4) The invasion ability of cell was performed by using 8 μm pore size transwell (Corning Fluor® Blok™). The transwell insert was coated with 60 μl matrigel (300 μg/ml in serum-free medium, BD Bioscience) overnight at 37° C. in 5% CO2 atmosphere. 2.5×10^4 cells in 0.2 mL of serum-free growth medium were seeded into the upper chamber coated with matrigel and then treated with IL-8 (200 ng/ml) with/without ONCO P-8 (400 ng/ml). After incubation for 24 hrs at 37° C. in 5% CO2, membrane of upper chamber was fixed with methanol and stained with propidium iodide (PI). The invasive cells in the bottom of membrane were imaged and counted by using an inverted fluorescence microscope (Observer.Z1, Zeiss) in five random fields of each specimen (magnification, ×100).

For data set [2], the system named is gemcitabine-resistant cell (BxPC-3GR). The data set can be described thus: Migration of Gemcitabine-resistant cancer cells. Type of data set: cell-based, Human. As to conditions: ONCO P-8 400 ng/ml, IL-8 200 ng/ml. As to the method: (§5) The drug concentration: ONCO P-8 (400 ng/ml), Reparixin (200 nM), IL-8 (200 ng/ml), statistical significance: *P<0.05, **P<0.01,***P<0.001.

Data set [3] relates to BxPC-3GR. The data set can be described thus: Transwell invasion assay, BxPC-3GR. Type of data set: cell-based, Human. As to conditions: Gemcitabine 100 nM; for invasion rate: ONCO P-8 400 ng/mL or IL-8 200 ng/mL, versus control. The protocol:
as §4
(§6) The Gemcitabine-resistant cancer cells treated by Gemcitabine (100 nM) with ONCO P-8 (400 ng/mL), or treated by Gemcitabine with ONCO P-8 and IL-8 (200 ng/mL), or treated by Gemcitabine with IL-8 respectively for invasion ability assay.
as §5

Data set [4] relates to CSC markers (NANOG, OCT4, SOX2, ALDHA1, BMI-1, KLF4, Nestin) in BxPC3GR-derived spheroids. The data set can be described thus: RT-PCR of CSC markers in BxPC3GR-derived spheroids. As to conditions: ONCO P-8 400 ng/ml (47 nM), Gemcitabine 100 nM. Type of data set: cell-based, Human. As to the method:
FIG. 12A-12G illustrate RT-PCR analysis was performed to determine the effect of ONCO P-8 treatment on the expression levels of NANOG (FIG. 12A), OCT4 (FIG. 12B), SOX2 (FIG. 12C), ALDHA1 (FIG. 12D), BMI-1 (FIG. 12E), KLF4 (FIG. 12F) and Nestin (FIG. 12G) in BxPC3GR-derived spheroids with Gemcitabine. Drug resistance related CSC marker: NANOG, OCT4, SOX2. Cell invasion related CSC marker: ALDHA1, BMI-1. Tumor growth related CSC marker: KLF4, Nestin.
All real-time PCR reactions were performed with specific primers and taqman probes or probes from the Universal Probe Library (Roche Applied Science) in the StepOneTMReal-Time PCR system (Applied Biosystems™). 18 s was used as an internal loading control. The reactions were performed as follows: denaturation for 2 min at 50° C. and 10 min at 95° C., 50 cycles of 95° C. for 15 sec, and 60° C. for 1 min. […] Sequences of all primers used are listed below (F: Forward primer; R: Reverse primer): […]

The next data set has as its system BxPC-3. Nature of the data set: Colony formation assay, BxPC-3. It counts as cell-based, Human. As to conditions: IL-8 200 ng/ml, ONCO P-8 400 ng/ml, 2 weeks. The protocol:
Cells were Seeded in a 24-Well Plate at a Density of 1000 Cells Per well, treatment were executed 24 hr after seeding. The treatment included that the cells were treated with IL-8 (200 ng/ml), IL-8 (200 ng/ml) plus ONCO P-8 (400 ng/ml), or ONCO P-8 (400 ng/ml). After 2 weeks, the medium was removed and cells were washed with PBS and stained for 30 min in 0.1% w/v crystal violet (dissolved in methanol; 32675, Fluka® Analytical, USA). Area of colonies were identified by camera and analyzed by ImageJ analysis software. The results were calculated as follows: Colony formation rate (%)=(Treatment area of the colony/Control area of the colony)×100%

The next data set concerns the target T1, CXCR2 (Homo sapiens, UniProt P25025).
T1 sequence (P25025 1-360): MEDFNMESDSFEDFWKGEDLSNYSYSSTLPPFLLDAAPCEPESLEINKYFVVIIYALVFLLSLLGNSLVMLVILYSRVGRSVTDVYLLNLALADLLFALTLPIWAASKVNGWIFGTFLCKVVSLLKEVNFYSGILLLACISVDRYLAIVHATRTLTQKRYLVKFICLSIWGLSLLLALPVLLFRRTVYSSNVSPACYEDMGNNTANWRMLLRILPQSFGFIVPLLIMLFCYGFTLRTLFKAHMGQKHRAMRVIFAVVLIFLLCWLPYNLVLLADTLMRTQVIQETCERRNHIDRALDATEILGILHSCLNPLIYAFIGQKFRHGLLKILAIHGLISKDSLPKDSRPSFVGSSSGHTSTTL
Nature of the data set: Indirect ELISA binding assay, CXCR2 complex formation. Conditions: versus IL-8. From the text: (§7) The Kd Equation include: (1) i=A450nm/A^max450 nm, then i=Ligand/Ligand^max; (2) 1/(1−i)=(Ligtot/i)/Kd−b, b=fqSrec/Kd.
For orientation: ELISA stands for enzyme-linked immunosorbent assay.

Another data set concerns the target T2, CXCR1 (Homo sapiens, UniProt P25024).
T2 sequence (P25024 1-350): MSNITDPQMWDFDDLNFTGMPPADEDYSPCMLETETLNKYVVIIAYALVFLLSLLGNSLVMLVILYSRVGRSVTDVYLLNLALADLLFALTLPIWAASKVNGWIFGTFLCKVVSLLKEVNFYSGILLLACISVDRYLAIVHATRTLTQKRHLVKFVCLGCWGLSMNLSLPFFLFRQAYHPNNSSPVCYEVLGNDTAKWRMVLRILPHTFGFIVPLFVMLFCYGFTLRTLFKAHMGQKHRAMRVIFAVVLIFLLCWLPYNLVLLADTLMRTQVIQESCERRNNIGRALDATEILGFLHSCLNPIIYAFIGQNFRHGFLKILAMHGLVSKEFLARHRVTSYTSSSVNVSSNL
The data set can be described thus: Indirect ELISA binding assay, CXCR1 complex formation. As to conditions: versus IL-8.
Source text: as §7

A further data set has as its system BxPC-3 xenograft tumor. It counts as in vivo, BALB/c nude mice. As to the method:
The PDAC xenograft tumor model treated by ONCO P-8, or treated by Gemcitabine with ONCO P-8, or treated by Gemcitabine, or treated by Gemcitabine, or treated PBS respectively. Gemcitabine administrations were about 100 mg/kg subject weight twice per week. ONCO P-8 administrations were about 500 μg/kg subject weight three times per week. […] The survival rate of xenograft model treated by ONCO P-8 or treated by Gemcitabine with ONCO P-8 is about 100%.
To evaluate the effect of ONCO P-8 in vivo, it was used the BxPC-3 model in 4-week old male BALB/c nude mice in the present invention. Mice were inoculated BxPC-3 cells subcutaneously. After 7 days, mice were treated with PBS or ONCO P-8 (500 μg/kg) by i.p injection three times a week. The initiation tumor size was 128.5±47.8 mm^3 in first treatment.

In another data set the test system is MIAPaCa2GR. The data set can be described thus: Transwell invasion assay, MIAPaCa2GR. Type of data set: cell-based, Human. As to conditions: Gemcitabine 100 nM. The protocol: as §4, §6
Setting [5] is: IL-8 200 ng/mL + ONCO P-8 400 ng/mL versus IL-8 group.

For orientation: IC50 means the midpoint of a concentration-inhibition curve. Turning to `Nc1ccn([C@@H]2O[C@H](CO)[C@@H](O)C2(F)F)c(=O)n1` [Gemcitabine], the IC50 was 8620 nM with MIAPaCa2GR cells; 251 nM with MIAPaCa2 cells; 6.13 nM in the data set on BxPC-3 cells; 236 nM with BxPC-3GR cells (BxPC-3GR cells, read-out: IC50-value in BxPC-3GR cells); 236 nM in the data set on BxPC-3GR cells (BxPC-3GR resistant cells, read-out: IC50 (nM) Resistant cells). For the same molecule, the proliferation rate result with BxPC-3GR [1] was “enhanced”.
With “IL-8: ELR-CXC chemokine CXCL8 (IL-8), ligand of CXCR1 and CXCR2 [reference compound]”, the invasive rate result in the data set on BxPC-3 cell line was “can enhance the cell invasion”. In addition, the migration rate result in data set [2] is recorded as “can enhance the cell migration”. Further, the invasion rate entry with BxPC-3GR [3] is recorded as “can enhance”.

B1: ONCO P-8: chemokine receptor antagonistic modified peptide (SEQ ID NO: 1), analogous protein of CXCL8 (IL-8), antagonist of CXCR1 and CXCR2 (protein)
chain: GSKELRCQCIRSYSKPFHPKFIKELRVIPASQFCANTEIIVKLSDGRELCLDPKENWVQRVVEKFLKRAENS
modifications: ONCO P-8
With B1, the “expression of CSC properties markers” value in [4] is “can reduce the expression of these CSC properties markers”. The colony formation rate result with BxPC-3 was “can neutralize the effect of CXCL8 to reduce the colony formation rate”. In addition, in the data set with CXCR2, the “bind to CXCR2 tighter than IL-8” value is 3-4 fold. Besides, the “bind to CXCR1 tighter than IL-8” value with CXCR1 is 3-4 fold. Also, the “invasive rate in presence of CXCL8” value with BxPC-3 cell line (IL-8 200 ng/ml with ONCO P-8 400 ng/ml) was “can neutralize the effect of CXCL8 to reduce the invasive rate”. Besides, the invasive rate entry in the data set on BxPC-3 cell line is “can reduce the invasive rate”. For the same molecule, the “survival rate / lifespan” value in the data set on BxPC-3 xenograft tumor (BxPC-3 xenograft) is given as “improve the survival rate”. Moreover, the survival rate entry in the data set on BxPC-3 xenograft tumor (BxPC-3 xenograft, FIG. 13C) is given as “about 100%”. Besides, in the data set with BxPC-3 xenograft tumor (BxPC-3 xenograft, ONCO P-8 500 μg/kg i.p. three times a week, Gemcitabine 100 mg/kg twice per week), the “tumor growth (tumor size)” value is “significantly inhibited the tumor growth”. In addition, the “body weight of mice” value in the data set on BxPC-3 xenograft tumor (mouse, in vivo, ip) is “didn't lead to reduce the body weight”. The migration rate entry in data set [2] was “can reduce the migration rate; also recorded: can attenuate”. The “invasion rate in presence of IL-8” value in the data set on MIAPaCa2GR (setting [5]) was “can prevent significantly invasion rate”; with BxPC-3GR [3] (setting [5]) it was “can prevent significantly invasion rate; also recorded: can neutralize the effect of CXCL8 to reduce the invasive rate”. In addition, the invasion rate result is “decreases invasion rate; also recorded: can inhibit the invasion ability” in the data set on MIAPaCa2GR (ONCO P-8 400 ng/mL, versus control) and “decreases invasion rate; also recorded: can reduce; also recorded: can inhibit the invasion ability; also recorded: can attenuate” in the data set with BxPC-3GR [3]. In the data set on BxPC-3GR [1], the proliferation rate entry was “significantly attenuated; also recorded: inhibited”.
